From patent publication US20240301373, “FANZORS ARE RNA-GUIDED NUCLEASES ENCODED IN EUKARYOTIC GENOMES” (Massachusetts Institute of Technology, published 2024) come the findings set out here.

In series [1] the target is T1, BaFNuc (Batillaria attramentaria).
T1 chain: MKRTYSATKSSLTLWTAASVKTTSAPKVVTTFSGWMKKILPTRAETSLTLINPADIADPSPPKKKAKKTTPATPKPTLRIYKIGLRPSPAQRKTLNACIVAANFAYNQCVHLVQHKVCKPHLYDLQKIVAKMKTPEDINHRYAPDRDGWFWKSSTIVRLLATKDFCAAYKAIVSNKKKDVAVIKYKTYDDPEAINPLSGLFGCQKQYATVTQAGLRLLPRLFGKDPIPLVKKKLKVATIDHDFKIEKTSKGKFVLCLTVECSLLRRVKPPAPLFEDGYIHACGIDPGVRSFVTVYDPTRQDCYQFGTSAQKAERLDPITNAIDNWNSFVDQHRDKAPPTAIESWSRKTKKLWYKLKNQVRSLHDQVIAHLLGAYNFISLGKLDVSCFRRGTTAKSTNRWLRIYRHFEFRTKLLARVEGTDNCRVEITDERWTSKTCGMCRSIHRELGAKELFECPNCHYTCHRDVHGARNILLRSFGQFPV
The series can be described thus: pulldown; co-purified fRNA sequenced. From the text:
(§1) This study sought to explore whether Fanzor2 proteins from diverse eukaryotes also are active RNA-guided nucleases. Three Fanzor2 representatives from three animals and a Fanzor1 representative from a plant were chosen for this study: 1) Fanzor2 from Aercenaria mercenaria (Venus clam, MmFNuc), 2) Fanzor2 from Dreissena polymorpha (Zebra mussel, DpFNuc), 3) Fanzor2 from Batillaria attramentaria (Japanese mud snail; BaFNuc), and 4) Fanzor1 from Klebsormidium nitens (freshwater green algae; KnFNuc) (FIG. 21A). […] Constructs for co-expression of the fRNA and Fanzor nuclease were cloned in a cell-free transcription/translation system, allowing for isolation of the resulting RNPs to study their fRNA sequences and cleavage activity (FIG. 21B). […] These fRNAs were highly structured with diverse structural motifs and domains (FIG. 28B).

In series [2] the target is T2, DpFNuc (Dreissena polymorpha).
T2 chain: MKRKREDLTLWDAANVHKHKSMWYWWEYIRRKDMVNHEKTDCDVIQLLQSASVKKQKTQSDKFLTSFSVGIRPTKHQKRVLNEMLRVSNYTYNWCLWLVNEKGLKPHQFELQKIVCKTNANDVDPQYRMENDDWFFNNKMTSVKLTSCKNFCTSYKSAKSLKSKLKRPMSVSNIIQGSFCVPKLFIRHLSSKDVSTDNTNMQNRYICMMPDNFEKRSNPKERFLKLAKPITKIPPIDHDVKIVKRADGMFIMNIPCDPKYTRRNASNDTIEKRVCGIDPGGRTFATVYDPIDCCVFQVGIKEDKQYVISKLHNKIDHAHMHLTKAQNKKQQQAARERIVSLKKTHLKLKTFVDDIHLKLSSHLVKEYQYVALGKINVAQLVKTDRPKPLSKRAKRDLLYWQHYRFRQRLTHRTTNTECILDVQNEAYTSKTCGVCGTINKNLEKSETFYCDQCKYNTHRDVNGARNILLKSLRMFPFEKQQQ
The series can be described thus: pulldown; co-purified fRNA sequenced.
Description: as §1

The target of series [3] is T3, MmFNuc (Mercenaria mercenaria).
T3 chain: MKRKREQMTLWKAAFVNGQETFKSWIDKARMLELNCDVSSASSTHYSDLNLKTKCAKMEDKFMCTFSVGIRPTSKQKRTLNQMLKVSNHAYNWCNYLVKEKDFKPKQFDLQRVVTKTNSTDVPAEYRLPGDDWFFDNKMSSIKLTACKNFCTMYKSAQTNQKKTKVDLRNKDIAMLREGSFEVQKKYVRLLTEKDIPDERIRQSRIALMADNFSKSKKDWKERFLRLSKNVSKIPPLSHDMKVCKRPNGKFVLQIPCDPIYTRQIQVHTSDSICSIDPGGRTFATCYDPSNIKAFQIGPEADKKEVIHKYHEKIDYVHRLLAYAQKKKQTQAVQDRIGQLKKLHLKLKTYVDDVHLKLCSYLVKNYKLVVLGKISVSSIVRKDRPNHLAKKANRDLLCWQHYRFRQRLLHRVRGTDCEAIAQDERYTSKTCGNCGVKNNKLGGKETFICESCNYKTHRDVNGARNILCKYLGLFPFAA
As to the kind of experiment: pulldown; co-purified fRNA sequenced.
Description: as §1

Series [4] has as its target T4, ApmFNuc (ApmHNuc, Isvmimi Fanzor2) (Acanthamoeba polyphaga mimivirus, UniProt Q5UPQ8 SEQ:1-520).
T4 sequence: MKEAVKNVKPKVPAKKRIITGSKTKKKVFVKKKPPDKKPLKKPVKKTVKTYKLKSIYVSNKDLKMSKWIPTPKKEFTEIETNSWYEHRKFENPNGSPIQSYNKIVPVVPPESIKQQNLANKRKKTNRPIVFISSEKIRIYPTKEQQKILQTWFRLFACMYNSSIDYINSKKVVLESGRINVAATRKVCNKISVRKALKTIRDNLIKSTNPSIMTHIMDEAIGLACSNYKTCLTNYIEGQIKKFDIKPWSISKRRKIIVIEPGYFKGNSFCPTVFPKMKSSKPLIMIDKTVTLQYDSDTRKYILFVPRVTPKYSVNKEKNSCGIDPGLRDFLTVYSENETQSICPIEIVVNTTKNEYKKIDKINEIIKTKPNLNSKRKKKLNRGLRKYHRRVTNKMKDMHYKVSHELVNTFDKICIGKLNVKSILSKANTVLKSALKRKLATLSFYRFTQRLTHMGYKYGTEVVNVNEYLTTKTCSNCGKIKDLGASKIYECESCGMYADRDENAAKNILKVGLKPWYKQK
The series can be described thus: pulldown; co-purified fRNA identified by small RNA sequencing. Conditions: tags: Strep tag; RNP co-expressed with fRNA in E. coli.

Series [5] addresses T5, KnFNuc (Fanzor1) (Klebsormidium nitens).
T5 chain: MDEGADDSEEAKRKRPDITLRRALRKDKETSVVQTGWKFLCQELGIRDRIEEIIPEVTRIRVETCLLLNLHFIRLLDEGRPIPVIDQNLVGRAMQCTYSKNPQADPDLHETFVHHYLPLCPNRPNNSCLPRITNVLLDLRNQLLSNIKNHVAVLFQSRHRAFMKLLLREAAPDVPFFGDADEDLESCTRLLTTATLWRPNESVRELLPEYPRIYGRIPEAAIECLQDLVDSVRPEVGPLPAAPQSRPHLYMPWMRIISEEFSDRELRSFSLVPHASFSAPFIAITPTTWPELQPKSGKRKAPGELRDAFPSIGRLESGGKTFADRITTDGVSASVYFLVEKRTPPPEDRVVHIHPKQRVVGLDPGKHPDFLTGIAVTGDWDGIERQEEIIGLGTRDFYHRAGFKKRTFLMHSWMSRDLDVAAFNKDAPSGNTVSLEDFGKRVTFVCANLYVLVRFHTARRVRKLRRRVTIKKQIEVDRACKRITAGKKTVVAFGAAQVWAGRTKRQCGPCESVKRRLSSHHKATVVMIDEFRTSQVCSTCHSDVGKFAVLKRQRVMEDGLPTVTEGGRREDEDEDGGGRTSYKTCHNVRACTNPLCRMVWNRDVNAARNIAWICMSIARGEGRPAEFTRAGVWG
The series can be described thus: pulldown; co-purified fRNA sequenced.
Description: as §1

B1: BaFNuc fRNA scaffold (ssRNA)
RNA: CGCUCGAGUGGAGGGAACUGACAACUGUAGAGUGGAGAUCACCGACGAACGCUGGACCUCAAAGACGUGUGGCAUGUGCAGAUCCAUCCACCGCGAACUUGGGGCAAAAGAACUAUUCGAGUGCCCCAACUGCCACUACACCUGCCACAGAGACGUGCACGGAGCUCGAAACAUCUUGCUGAGAAGCUUCGGACAGUUUCCAGUCUAGAAAAACACGAACUUUUUCCUUGGCCCAAGGAUUGCCAAACACCACUCAAAUCCUCGUUCAGGGGCCUCGAGUGGCUGGGCAUAUAUGGGUUA
With B1, in series [1], the binding result was “binds”.

B2: DpFNuc fRNA scaffold (ssRNA)
RNA: AUUGGAUGUUCAAAAUGAAGCAUACACUUCGAAGACGUGUGGAGUGUGUGGAACAAUAAACAAAAAUCUAGAAAAGAGUGAAACAUUUUAUUGCGAUAACUGCAAAUAUAACACACACAGAGACGUUAAUGGUGCUAGAAAUAUUUUGCUAAAAUCGUUGCGCAUGUUUCCAUUUGUCAAUUCGCAGUUAUAAUUACUCUGUAACAAUUAGGUCGAUCCAUCCUAAAUUCGAAAGUCCAUUGCUACGAGACUUUGCGUAUGCUUAGUCCAGGGCAAUUUUCUGCCGAAUGAAAUGGGUUA
On to B2, for which, in series [2], the binding result is listed as “binds”.

B3: MmFNuc fRNA scaffold (ssRNA)
RNA: ACUUCCAAGACCUGUGGUAAUUGCGGUGUGAAGAACAACAAACUUGGUGGAAAGGAAACGUUUACUUGUGAGUGUUGCAAUUACAAAACUCAUCGAGACGUCAACGGAGCGAGAAACAUUCUGUGCAAAUACUUGAAACUUUUUCCAUUCGCAGCAUAACGAAAGAAACUGACAAUCGAUUUUUUCGGGUUCGAUUCUAUCCCACUUGACUCAAAGAGUCAGAGGGCUCGAAUACAUUUUCUGCACAGGUUUUGCUAAUGCAAGAUCUGGGGCAAGAAUGUGUUCGGGUCAAAUGAGUUA
In the case of B3, the binding result in series [3] was “binds”.

B4: ApmFNuc fRNA scaffold (21 nt 3' guide appended) (ssRNA)
RNA: AAAAAUAGUCUAAUAAAAUCAGGGGUACAUUCCGCUAGUACUCCACCCUACGGGUUAAGCAAAUGAGAAUAUCGAAACGGUAUGCACAGGAUUCUUCGAGUGAUAAUCUUAGGAUGACUCACUAAGGAGAUGACUAAAGUGUAUCAUUCAAUAUUGUAUUGAACGGUAUUCUUCCAUAGAGAGUUGAUUUUUGGAGUAUCCAGAAAUAUCAACUUUUUAUGAGCGG
On to B4, for which the binding result in series [4] is recorded as “binds”.

B5: KnFNuc fRNA scaffold (ssRNA)
RNA: GGAGGAGGGAGGACAAGCUACAAGACGUGCCACAACGUGCGAGCGUGUACGAACCCGCUCUGUCGCAUGGUGUGGAAUAGAGACGUCAACGCAGCUCGUAACAUAGCUUGGAUCUGUAUGAGCAUAGUCAGAGGCGAGGGCAGGCCAGCGGAGUUCACGAGAGCAGGAAUGUGAGGAUGACUGAGAAUUAGUCGAAAGACAUAGCUGCCUAGAAACGAGUUCAUCUAGGCACUUCGGUGAGAAUCCGAGAUACGGCUGGGUACUGUGGCGAGUGUGCCAUUUUACUCUGAACAGACUGUA
B5: the binding result in series [5] is on record as “binds”.
